Measurements as given in paper PMC10624894 (Nature Communications, 2023).

Target: EA1ΔD6 (Bacillus anthracis (strain 7702), UniProt P94217, biotin (EZ-Link NHS-PEG4-Biotin) in the BLI experiment only)
Experiment: BLI; […] (3 µg/ml) […]; room temperature; […]
Settings: both partners purified

Binder | Kd [nM]
Nb^633 (VHH, also called nanobody 633; source: E. coli WK6, periplasmic expression, purified (SEC as the final step)) VHH: QVQLVESGGGLVQAGASLRLSCAASGRTFSSYAMGWFRQAPGKEREFVAAISPLGQTTYYTDSVKGRFTISRDNAKNTLYLQMNSLKPEDTAVYYCAQGSLSEVRLGKSTYWGQGTQVTVSS | 13
Nb^632 (VHH, also called nanobody 632; source: E. coli WK6, periplasmic expression, purified (SEC as the final step)) VHH: QVQLVESGGGLVQAGGSLRLSCVASGGTFSNYGMGWFRQAPGKEREFVAAVRWSGDSTYYSDSVKGRFTISRDNAKNTVYLQMNGLKPEDTAVYYCARRLNWRFISNWDKESEYAYWGQGTQVTVSS | 2.2
Nb^643 (VHH, also called nanobody 643; source: E. coli WK6, periplasmic expression, purified (SEC as the final step)) VHH: QVQLVESGGGLVQPGGSLRLSCAASGIAFSRNAVGWYRQAPGKQRELVARSNTVGATNYADSVKGRFTISRDNDKSTVYLQMNSLKPEDTAVYYCNIYLYGDRTGSTLNSWGQGTQVTVSS | 1.9
